Tests used:
[1] = molecular target: T1, ROR1 on stably transgenic ROR1-expressing cells MDA-MB-231-ROR1 (UniProt Q01973 30-937, limits assumed); experiment: flow cytometry on MDA-MB-231-ROR1 cells
T1 construct: whole, on cells

[2] = molecular target: T2, ROR1 protein (ACROBiosystems, Cat# RO1-H5223) (UniProt Q01973 308-395); experiment: ELISA on ROR1 protein, anti-IgG secondary antibody, OD450
T2 construct: Bought protein

ROR1 antigen = molecular target: T3, ROR1 antigen (UniProt Q01973 30-403, limits assumed); experiment: BLI (Octet RED96e), antibody on sensor, ROR1 antigen from 100 nM in 2-fold dilutions
T3 construct: construct not described
T3 sequence (Q01973 30-403 limits assumed): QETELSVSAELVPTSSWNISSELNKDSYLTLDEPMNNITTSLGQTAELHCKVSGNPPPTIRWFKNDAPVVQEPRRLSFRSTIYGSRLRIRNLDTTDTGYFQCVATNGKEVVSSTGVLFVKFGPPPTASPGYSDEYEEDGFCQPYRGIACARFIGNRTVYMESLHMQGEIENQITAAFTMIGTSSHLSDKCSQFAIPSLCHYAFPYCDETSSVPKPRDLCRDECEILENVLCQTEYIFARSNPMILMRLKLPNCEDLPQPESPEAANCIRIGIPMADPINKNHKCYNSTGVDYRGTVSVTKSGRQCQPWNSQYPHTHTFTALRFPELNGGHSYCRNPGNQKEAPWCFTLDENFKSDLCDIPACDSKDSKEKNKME

T1 sequence (Q01973 30-937 limits assumed): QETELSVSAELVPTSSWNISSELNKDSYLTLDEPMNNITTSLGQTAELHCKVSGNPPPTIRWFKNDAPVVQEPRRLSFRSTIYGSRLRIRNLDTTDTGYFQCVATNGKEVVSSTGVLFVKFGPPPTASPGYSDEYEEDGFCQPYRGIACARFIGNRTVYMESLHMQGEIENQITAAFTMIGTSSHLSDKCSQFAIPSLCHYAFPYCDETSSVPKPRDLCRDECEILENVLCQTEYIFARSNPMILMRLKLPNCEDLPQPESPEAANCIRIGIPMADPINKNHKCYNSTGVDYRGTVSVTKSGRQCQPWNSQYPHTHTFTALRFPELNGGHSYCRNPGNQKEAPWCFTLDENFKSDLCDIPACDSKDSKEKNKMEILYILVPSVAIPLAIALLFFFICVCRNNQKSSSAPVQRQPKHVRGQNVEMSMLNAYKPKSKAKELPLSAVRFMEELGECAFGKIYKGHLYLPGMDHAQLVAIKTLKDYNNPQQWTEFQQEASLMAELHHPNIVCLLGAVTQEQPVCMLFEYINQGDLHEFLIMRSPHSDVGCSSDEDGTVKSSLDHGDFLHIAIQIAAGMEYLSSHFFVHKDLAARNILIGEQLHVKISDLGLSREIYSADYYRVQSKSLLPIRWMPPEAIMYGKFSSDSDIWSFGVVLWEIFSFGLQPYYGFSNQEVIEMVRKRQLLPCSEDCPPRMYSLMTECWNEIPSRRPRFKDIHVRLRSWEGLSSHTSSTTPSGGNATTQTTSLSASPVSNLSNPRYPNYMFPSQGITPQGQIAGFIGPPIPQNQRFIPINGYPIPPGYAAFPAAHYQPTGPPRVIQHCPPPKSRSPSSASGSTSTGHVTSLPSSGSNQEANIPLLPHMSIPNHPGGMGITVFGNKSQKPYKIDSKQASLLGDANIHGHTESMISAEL
T2 sequence (Q01973 308-395 limits assumed): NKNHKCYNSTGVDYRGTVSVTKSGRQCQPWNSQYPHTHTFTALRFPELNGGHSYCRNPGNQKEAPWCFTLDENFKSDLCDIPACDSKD

| Binder | EC50 [1] | EC50 [2] | Kd (ROR1 antigen) | koff (ROR1 antigen) | kon (ROR1 antigen) |
| --- | --- | --- | --- | --- | --- |
| murine antibody 17-F12-G8-A6 (antibody, V domains shown) VH: EVTLKESGPGILQPSQTLSLTCSFSGFSLSTSGMGVAWIRQPSGKGLEWLAHIWWDDDKRYNPALKSRLTISKDTSSNQVFLKIASVDTADTATYYCARPQFITTVVAFYWYFDVWGAGTTVTVSS VL: DILLTQSPASLSVSMGETVTITCRASENIYSNLAWYQQKQGKSPQLLVYAATNLADGVPSRFSGSGSGTQYSLKINSLQSEDFGSYYCQHFWGTPWTFGGGTKLEIK | 0.0988 µg/mL | 1.36 ng/mL | 14.8 nM | 0.0105 s⁻¹ | 708000 M⁻¹ s⁻¹ |
| humanized antibody hu17-H3L1 (antibody, human IgG1, kappa, L234A L235A, V domains shown) VH: QVTLKESGPTLVKPTQTLTLTCSFSGFSLSTSGMGVAWIRQPPGKALEWLAHIWWDDDKRYNPSLKSRLTITKDTSKNQVVLTMTNMDPVDTATYYCARPQFITTVVAFYWYFDVWGQGTTVTVSS VL: DILLTQSPSSLSVSVGDRVTITCRASENIYSNLAWYQQKPGKAPKLLVYAATNLADGVPSRFSGSGSGTQYTLTISSLQPEDFATYYCQHFWGTPWTFGGGTKLEIKR | 0.107 µg/mL | 1.4 ng/mL | 32.4 nM | 0.0279 s⁻¹ | 859000 M⁻¹ s⁻¹ |
| humanized antibody hu17-H4L1 (antibody, human IgG1, kappa, L234A L235A, V domains shown) VH: QVTLKESGPTLVKPTQTLTLTCTFSGFSLSTSGMGVAWIRQPPGKALEWLAHIWWDDDKRYGPSLKSRLTITKDTSKNQVVLTMTNMDPVDTATYYCARPQFITTVVAFYWYFDVWGQGTTVTVSS VL: DILLTQSPSSLSVSVGDRVTITCRASENIYSNLAWYQQKPGKAPKLLVYAATNLADGVPSRFSGSGSGTQYTLTISSLQPEDFATYYCQHFWGTPWTFGGGTKLEIKR | 0.101 µg/mL | 1.16 ng/mL | 20 nM | 0.0147 s⁻¹ | 738000 M⁻¹ s⁻¹ |
| humanized antibody hu17-H2L1 (antibody, human IgG1, kappa, L234A L235A, V domains shown) VH: EVTLKESGPTLVKPTQTLTLTCSFSGFSLSTSGMGVAWIRQPPGKALEWLAHIWWDDDKRYNPALKSRLTITKDTSKNQVVLTITNVDPVDTATYYCARPQFITTVVAFYWYFDVWGQGTTVTVSS VL: DILLTQSPSSLSVSVGDRVTITCRASENIYSNLAWYQQKPGKAPKLLVYAATNLADGVPSRFSGSGSGTQYTLTISSLQPEDFATYYCQHFWGTPWTFGGGTKLEIKR | 0.114 µg/mL | 1.42 ng/mL | 22.7 nM | 0.0185 s⁻¹ | 814000 M⁻¹ s⁻¹ |
